Measurements from article PMC4150794.
pKd: −log10 of the molar value.

Tests used:
[1] = test system: RBPMS2-Nter (Homo sapiens); assay: EMSA; conditions: theoretical Kd, cooperative fit; 100 nM RNA; second complex at 5 uM; EMSA: 20 mM Tris pH 7.4, 100 mM KCl, 1 mM EDTA, 10 ug/ml BSA, 1 mM DTT, 1 U/ul RNaseOUT, 2% glycerol, 20 C 30 min, 10% gel in 1X TBE at 4 C; anisotropy: 20 mM …
Q6ZRY4 = assay: SEC-MALS; Superdex 75 10/300, 20 mM Tris-HCl pH 8, 300 mM NaCl; loaded at 2 mg/ml (RBPMS2-Nter) or 4 mg/ml (RBPMS2-Nter-L49E); monomer to dimer

## 161-nt NOGGIN RNA
[1]
  pKd: 5.65

## RBPMS2-Nter-L49E (human RBPMS2 residues 27-117 with L49E)
Q6ZRY4
  percent of the protein in the monomer peak: The majority species (92.4%) has a Mw of 10.6 kDa, as would be expected for the monomer
